Experimental data taken from US20060251726.

Columns and labels:
[1] = tested on: T1, non-stearate Fus1 peptide
T1 sequence: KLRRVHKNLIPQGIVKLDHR

[2] = tested on: T2, stearate-Fus1 peptide (Stearic acid-KLRRVHKNLIPQGIVKLDHR)
T2 sequence: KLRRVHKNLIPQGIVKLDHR

truncated commercial (New England Bio-Labs) cAbl tyrosine kinase (45 kD) containing only the SH2 and SH1 domains
GST-Crk phosphorylation by the 45 kD Abl tyrosine kinase, 0-60 uM peptide [1]: Non-stearic acid modified Fus1 peptide did not inhibit Abl tyrosine kinase activity | phosphorylation of Gst-Crk by commercial Abl [1]: Non-stearate FUS1 peptide did not inhibit phosphorylation of Gst-Crk by commercial Abl | Abl tyrosine kinase assay using bacterially purified Abl kinase (GST-CRK phosphorylation) [2]: This peptide was strongly inhibitory in an Abl tyrosine kinase assay using bacterially purified Abl kinase | c-Abl tyrosine phosphorylation of GST-CRK (32P, SDS-PAGE, phosphoimager; 10-55 µM peptide) [2]: the peptide inhibits c-Abl tyrosine phosphorylation of GST-CRK
